Consider 13 molecules from US20200277339A1 (GENOME PROTECTION, published 2020).

B1: CBLB502 mutant 33MIMX (ligand)
chain: MRGSHHHHHHGMASMTGGQQMGRDLYDLVPRGSAKDPSGLRINSAKDDAAGQAIANRFTSNIKGLTQASRNAADGISIAQTTEGALNEINNNLQRVRELSVQATNGTNSDSDLKSIQDEIQQRLEEIDRVSNQTQANGVKVLSQDNAMKIQVGANDGAAITIDLQKIDVKSLGLDGFNVNSPGISGGGGGILDSMGTLINEDAAAAKKSTANPLASIDSALSKVDAVRSSLGAIQARFAAAIANLGNTVTNLNSARSRIEDADYATEVSNMSKAQILQQAGTSVLAQANQVPQNVLSLLR
B2: CBLB502 mutant MIM4 (ligand)
chain: MRGSHHHHHHGMASMTGGQQMGRDLYDDDDKDPMAQVINTNSLSLLTQNNLNKSQSSLSSAIERLSSGLRINSAKDDAAGQAIANRFTSNIKGLTQASRNANDGISIAQTTEGALNEINNNLQRVRELSVQATNGTNSDSDLKSIQDEIQQRLEEIDRVSNQTQFNGVKVLSQDNQMKIQVGANDGETITIDLQKIDVKSLGLDGFNVNSPGISGGGGGILDSMGTLINEDAAAAKKSTANPLASIDSALSKVDAVRSSLGAIDSAITALGATVTALASAASRIEDADYATEVSNMSKAQILQQAGTSVLAQANQVPQNVLSLLR
B3: CBLB502 mutant MIXC (ligand)
chain: MSGLRINSAKDDAAGQAIANRFTSNIKGLTQASRNANDGISIAQTTEGALNEINNNLQRVRELSVQATNGTNSDSDLKSIQDEIQQRLEEIDRVSNQTQFNGVKVLSQDNQMKIQVGANDGETITIDLQKIDVKSLGLDGFNVNSPGSTANPLASIDSALSKVDAVRSSLGAIQARFAAAIANLGNTVTNLNSARSRIEDADYATEVSNMSKAQILQQAGTSVLAQANQVPQNVLSLLVPRGSHHHHHHG
B4: CBLB502 mutant MIM1 (ligand)
chain: MRGSHHHHHHGMASMTGGQQMGRDLYDDDDKDPMAQVINTNSLSLLTQNNLNKSQSSLSSAIERLSSGLRINSAKDDAAGQAIANRFTSNIKGLTQASRNANDGISIAQTTEGALNEINNNLQRVRELSVQATNGTNSDSDLKSIQDEIQQRLEEIDRVSNQTQFNGVKVLSQDNQMKIQVGANDGETITIDLQKIDVKSLGLDGFNVNSPGISGGGGGILDSMGTLINEDAAAAKKSTANPLASIDSALSKVDAVRSSLGAIQNRFDSAITNLGNTVTALASARSRIEDADYATEVSNMSKAQILQQAGTSVLAQANQVPQNVLSLLR
B5: CBLB502 mutant MIM3 (ligand)
chain: MRGSHHHHHHGMASMTGGQQMGRDLYDDDDKDPMAQVINTNSLSLLTQNNLNKSQSSLSSAIERLSSGLRINSAKDDAAGQAIANRFTSNIKGLTQASRNANDGISIAQTTEGALNEINNNLQRVRELSVQATNGTNSDSDLKSIQDEIQQRLEEIDRVSNQTQFNGVKVLSQDNQMKIQVGANDGETITIDLQKIDVKSLGLDGFNVNSPGISGGGGGILDSMGTLINEDAAAAKKSTANPLASIDSALSKVDAVRSSLGAIQNRFDSAITALGATVTALASAASRIEDADYATEVSNMSKAQILQQAGTSVLAQANQVPQNVLSLLR
B6: CBLB502 mutant MIM5 (ligand)
chain: MRGSHHHHHHGMASMTGGQQMGRDLYDDDDKDPMAQVINTNSLSLLTQNNLNKSQSSLSSAIERLSSGLRINSAKDDAAGQAIANRFTSNIKGLTQASRNANDGISIAQTTEGALNEINNNLQRVRELSVQATNGTNSDSDLKSIQDEIQQRLEEIDRVSNQTQFNGVKVLSQDNQMKIQVGANDGETITIDLQKIDVKSLGLDGFNVNSPGISGGGGGILDSMGTLINEDAAAAKKSTANPLASIDSALSKVDAVRSSLGAIAKAFDSAITALGATVTALASAASRIEDADYATEVSNMSKAQILQQAGTSVLAQANQVPQNVLSLLR
B7: CBLB502 mutant MIM2 (ligand)
chain: MRGSHHHHHHGMASMTGGQQMGRDLYDDDDKDPMAQVINTNSLSLLTQNNLNKSQSSLSSAIERLSSGLRINSAKDDAAGQAIANRFTSNIKGLTQASRNANDGISIAQTTEGALNEINNNLQRVRELSVQATNGTNSDSDLKSIQDEIQQRLEEIDRVSNQTQFNGVKVLSQDNQMKIQVGANDGETITIDLQKIDVKSLGLDGFNVNSPGISGGGGGILDSMGTLINEDAAAAKKSTANPLASIDSALSKVDAVRSSLGAIQNRFDSAITNLGNTVTALASAASRIEDADYATEVSNMSKAQILQQAGTSVLAQANQVPQNVLSLLR
B8: CBLB502 (ligand)
chain: not shown
B9: CBLB502 variant MF227C (ligand)
chain: MSGLRINSAKDDAAGQAIANRFTSNIKGLTQASRNANDGISIAQTTEGALNEINNNLQRVRELSVQATNGTNSDSDLKSIQDEIQQRLEEIDRVSNQTQFNGVKVLSQDNQMKIQVGANDGETITIDLQKIDVKSLGLDGFNVNSPGSTANPLASIDSALSKVDAVRSSLGAIQNRFDSAITNLGNTVTNLNSARSRIEDADYANQVPQNVLSLLVPRGSHHHHHHG
B10: CBLB502 variant 485D (ligand)
chain: MSGLRINSAKDDAAGQAIANRFTSNIKGLTQASRNANDGISIAQTTEGALNEINNNLQRVRELSVQATNGTNSDSDLKSIQDEIQQRLEEIDRVSNQTQFNGVKVLSQDNQMKIQVGANDGETITIDLQKIDVKSLGLDGFNVNSPGSTANPLASIDSALSKVDAVRSSLGAIDSAITALGNTVTNLNSARSRIEDADYATEVSNMSKAQILQQAGLVPRGSHHHHHHG
B11: CBLB502 variant 467 (ligand)
chain: MRGSHHHHHHGMASMTGGQQMGRDLYDLVPRGSAKDPMAQVINTNSLSLLTQNNLNKSQSSLSSAIERLSSGLRINSAKDDAAGQAIANRFTSNIKGLTQASRNANDGISIAQTTEGALNEINNNLQRVRELSVQATNGTNSDSDLKSIQDEIQQRLEEIDRVSNQTQFNGVKVLSQDNQMKIQVGANDGETITIDLQKIDVKSLGLDGFNVNSPGISGGGGGILDSMGTLINEDAAAAKKSTANPLASIDSALSKVDAVRSSLGAIQNRFDSAITNLGNTVTNLNSARSRIEDA
B12: CBLB502 variant 461 (ligand)
chain: MRGSHHHHHHGMASMTGGQQMGRDLYDLVPRGSAKDPMAQVINTNSLSLLTQNNLNKSQSSLSSAIERLSSGLRINSAKDDAAGQAIANRFTSNIKGLTQASRNANDGISIAQTTEGALNEINNNLQRVRELSVQATNGTNSDSDLKSIQDEIQQRLEEIDRVSNQTQFNGVKVLSQDNQMKIQVGANDGETITIDLQKIDVKSLGLDGFNVNSPGISGGGGGILDSMGTLINEDAAAAKKSTANPLASIDSALSKVDAVRSSLGAIQNRFDSAITNLGNTVTNLNSAR
B13: CBLB502 variant 445 (ligand)
chain: MRGSHHHHHHGMASMTGGQQMGRDLYDLVPRGSAKDPMAQVINTNSLSLLTQNNLNKSQSSLSSAIERLSSGLRINSAKDDAAGQAIANRFTSNIKGLTQASRNANDGISIAQTTEGALNEINNNLQRVRELSVQATNGTNSDSDLKSIQDEIQQRLEEIDRVSNQTQFNGVKVLSQDNQMKIQVGANDGETITIDLQKIDVKSLGLDGFNVNSPGISGGGGGILDSMGTLINEDAAAAKKSTANPLASIDSALSKVDAVRSSLGAIQNRFD

The target of one assay is TLR5 of the cell-based reporter assays. Kind of assay: cell-based or functional assay.
For the molecule B1, the “Signaling EC50 Normalized by CBLB502” value came to 1.3 fold vs CBLB502.
The same measure, in the same setting: with B2 the figure was 37 fold vs CBLB502; with B3, 1.5 fold vs CBLB502; with B4, 0.9 fold vs CBLB502.
B5: the “Signaling EC50 Normalized by CBLB502” value is 4.6 fold vs CBLB502.
Still for that read-out and setting: then B6, with 54 fold vs CBLB502.
Same read-out and setting: then B7, with 1.2 fold vs CBLB502.

The next assay has the same target. Kind of assay: cell-based or functional assay. This is another data set of the same source.
As for B8, the “Relative EC50 vs 502, Signaling (LecZ)” value stood at 1 fold vs 502 and the “Relative EC50 vs 502, Signaling (Luc)” value came to 1 fold vs 502.
For the molecule B9, the “Relative EC50 vs 502, Signaling (LecZ)” value came to 5.5 fold vs 502.
As to B10, the “Relative EC50 vs 502, Signaling (LecZ)” value is 44 fold vs 502.
B11: the “Relative EC50 vs 502, Signaling (LecZ)” value is 57 fold vs 502 and the “Relative EC50 vs 502, Signaling (Luc)” value amounted to 71 fold vs 502.
On the same counts, the results for B12 are 105 fold vs 502 and 97 fold vs 502.
On the same counts, the results for B13 are 694 fold vs 502 and 141000 fold vs 502.
